# From publication PMC3971370 (Molecular plant, 2012)
# B1: cCFP–TPK1–R35A/R39A (natural protein)
# chain: MSSDAARTPLLPTEKIDTMAQDFNLNSRTSSSRKARLRASRSAPRGDCMYNDDVKIDEPPPHPSKIPMFSDLNPNLRRVIMFLALYLTIGTLCFYLVRDQISGHKTSGVVDALYFCIVTMTTVGYGDLVPNSSASRLLACAFVFSGMVLVGHLLSRAADYLVEKQEALLVRAFHLRQSFGPTDILKELHTNKLRYKCYATCLVLVVLFIVGTIFLVMVEKMPVISAFYCVCSTVTTLGYGDKSFNSEAGRLFAVFWILTSSICLAQFFLYVAELNTENKQRALVKWVLTRRITNNDLEAADLDEDGVVGAAEFIVYKLKEMGKIDEKDISGIMDEFEQLDYDESGTLTTSDIVLAQTTSQIQR
# Molecular target: nCFP–CPK3 (Arabidopsis thaliana, UniProt Q42479 1-529)
# Assay: split reporter
# Chain of nCFP–CPK3 (Q42479 whole entry): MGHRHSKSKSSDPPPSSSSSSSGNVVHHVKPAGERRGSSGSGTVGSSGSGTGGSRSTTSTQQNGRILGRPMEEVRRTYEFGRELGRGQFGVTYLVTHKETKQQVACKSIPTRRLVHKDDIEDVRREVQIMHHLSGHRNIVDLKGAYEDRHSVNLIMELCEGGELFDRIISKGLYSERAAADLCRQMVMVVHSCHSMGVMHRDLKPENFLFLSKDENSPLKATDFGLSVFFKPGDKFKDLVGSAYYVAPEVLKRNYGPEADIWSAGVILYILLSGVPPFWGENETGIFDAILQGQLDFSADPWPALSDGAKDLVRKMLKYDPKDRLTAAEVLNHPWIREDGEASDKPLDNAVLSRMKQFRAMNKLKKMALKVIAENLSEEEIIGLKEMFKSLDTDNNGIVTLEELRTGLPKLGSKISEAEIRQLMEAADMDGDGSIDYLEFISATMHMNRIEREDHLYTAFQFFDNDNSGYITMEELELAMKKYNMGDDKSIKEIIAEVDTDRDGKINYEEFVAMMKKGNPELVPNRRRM
binder,measurement,value
B1,BiFC signal relative to wild-type TPK1,~0.5 fold of wild type
